Measurements published in paper PMC11626796.

Experiments:
[1] = biological target: Versican treated with chondroitinase ABC (core protein) (bovine) (UniProt P81282); experiment: ELISA; solid-phase binding assay: proteoglycan or versican domain coated on a 96-well plate (0.25 ug/ml; 0.05-1 ug/ml in Fig. 2A) at 4 C overnight, blocked with 3% BSA in TTBS or casein; rat tail type I collagen 0.1-5 ug/ml in 1% BSA/PBS overnight at RT; detected with biotin-conjugated anti-collagen I antibody, streptavidin-HRP and TMB; Kd from Scatchard plot
Versican treated with chondroitinase ABC (core protein) (bovine), sequence (P81282 21-3381): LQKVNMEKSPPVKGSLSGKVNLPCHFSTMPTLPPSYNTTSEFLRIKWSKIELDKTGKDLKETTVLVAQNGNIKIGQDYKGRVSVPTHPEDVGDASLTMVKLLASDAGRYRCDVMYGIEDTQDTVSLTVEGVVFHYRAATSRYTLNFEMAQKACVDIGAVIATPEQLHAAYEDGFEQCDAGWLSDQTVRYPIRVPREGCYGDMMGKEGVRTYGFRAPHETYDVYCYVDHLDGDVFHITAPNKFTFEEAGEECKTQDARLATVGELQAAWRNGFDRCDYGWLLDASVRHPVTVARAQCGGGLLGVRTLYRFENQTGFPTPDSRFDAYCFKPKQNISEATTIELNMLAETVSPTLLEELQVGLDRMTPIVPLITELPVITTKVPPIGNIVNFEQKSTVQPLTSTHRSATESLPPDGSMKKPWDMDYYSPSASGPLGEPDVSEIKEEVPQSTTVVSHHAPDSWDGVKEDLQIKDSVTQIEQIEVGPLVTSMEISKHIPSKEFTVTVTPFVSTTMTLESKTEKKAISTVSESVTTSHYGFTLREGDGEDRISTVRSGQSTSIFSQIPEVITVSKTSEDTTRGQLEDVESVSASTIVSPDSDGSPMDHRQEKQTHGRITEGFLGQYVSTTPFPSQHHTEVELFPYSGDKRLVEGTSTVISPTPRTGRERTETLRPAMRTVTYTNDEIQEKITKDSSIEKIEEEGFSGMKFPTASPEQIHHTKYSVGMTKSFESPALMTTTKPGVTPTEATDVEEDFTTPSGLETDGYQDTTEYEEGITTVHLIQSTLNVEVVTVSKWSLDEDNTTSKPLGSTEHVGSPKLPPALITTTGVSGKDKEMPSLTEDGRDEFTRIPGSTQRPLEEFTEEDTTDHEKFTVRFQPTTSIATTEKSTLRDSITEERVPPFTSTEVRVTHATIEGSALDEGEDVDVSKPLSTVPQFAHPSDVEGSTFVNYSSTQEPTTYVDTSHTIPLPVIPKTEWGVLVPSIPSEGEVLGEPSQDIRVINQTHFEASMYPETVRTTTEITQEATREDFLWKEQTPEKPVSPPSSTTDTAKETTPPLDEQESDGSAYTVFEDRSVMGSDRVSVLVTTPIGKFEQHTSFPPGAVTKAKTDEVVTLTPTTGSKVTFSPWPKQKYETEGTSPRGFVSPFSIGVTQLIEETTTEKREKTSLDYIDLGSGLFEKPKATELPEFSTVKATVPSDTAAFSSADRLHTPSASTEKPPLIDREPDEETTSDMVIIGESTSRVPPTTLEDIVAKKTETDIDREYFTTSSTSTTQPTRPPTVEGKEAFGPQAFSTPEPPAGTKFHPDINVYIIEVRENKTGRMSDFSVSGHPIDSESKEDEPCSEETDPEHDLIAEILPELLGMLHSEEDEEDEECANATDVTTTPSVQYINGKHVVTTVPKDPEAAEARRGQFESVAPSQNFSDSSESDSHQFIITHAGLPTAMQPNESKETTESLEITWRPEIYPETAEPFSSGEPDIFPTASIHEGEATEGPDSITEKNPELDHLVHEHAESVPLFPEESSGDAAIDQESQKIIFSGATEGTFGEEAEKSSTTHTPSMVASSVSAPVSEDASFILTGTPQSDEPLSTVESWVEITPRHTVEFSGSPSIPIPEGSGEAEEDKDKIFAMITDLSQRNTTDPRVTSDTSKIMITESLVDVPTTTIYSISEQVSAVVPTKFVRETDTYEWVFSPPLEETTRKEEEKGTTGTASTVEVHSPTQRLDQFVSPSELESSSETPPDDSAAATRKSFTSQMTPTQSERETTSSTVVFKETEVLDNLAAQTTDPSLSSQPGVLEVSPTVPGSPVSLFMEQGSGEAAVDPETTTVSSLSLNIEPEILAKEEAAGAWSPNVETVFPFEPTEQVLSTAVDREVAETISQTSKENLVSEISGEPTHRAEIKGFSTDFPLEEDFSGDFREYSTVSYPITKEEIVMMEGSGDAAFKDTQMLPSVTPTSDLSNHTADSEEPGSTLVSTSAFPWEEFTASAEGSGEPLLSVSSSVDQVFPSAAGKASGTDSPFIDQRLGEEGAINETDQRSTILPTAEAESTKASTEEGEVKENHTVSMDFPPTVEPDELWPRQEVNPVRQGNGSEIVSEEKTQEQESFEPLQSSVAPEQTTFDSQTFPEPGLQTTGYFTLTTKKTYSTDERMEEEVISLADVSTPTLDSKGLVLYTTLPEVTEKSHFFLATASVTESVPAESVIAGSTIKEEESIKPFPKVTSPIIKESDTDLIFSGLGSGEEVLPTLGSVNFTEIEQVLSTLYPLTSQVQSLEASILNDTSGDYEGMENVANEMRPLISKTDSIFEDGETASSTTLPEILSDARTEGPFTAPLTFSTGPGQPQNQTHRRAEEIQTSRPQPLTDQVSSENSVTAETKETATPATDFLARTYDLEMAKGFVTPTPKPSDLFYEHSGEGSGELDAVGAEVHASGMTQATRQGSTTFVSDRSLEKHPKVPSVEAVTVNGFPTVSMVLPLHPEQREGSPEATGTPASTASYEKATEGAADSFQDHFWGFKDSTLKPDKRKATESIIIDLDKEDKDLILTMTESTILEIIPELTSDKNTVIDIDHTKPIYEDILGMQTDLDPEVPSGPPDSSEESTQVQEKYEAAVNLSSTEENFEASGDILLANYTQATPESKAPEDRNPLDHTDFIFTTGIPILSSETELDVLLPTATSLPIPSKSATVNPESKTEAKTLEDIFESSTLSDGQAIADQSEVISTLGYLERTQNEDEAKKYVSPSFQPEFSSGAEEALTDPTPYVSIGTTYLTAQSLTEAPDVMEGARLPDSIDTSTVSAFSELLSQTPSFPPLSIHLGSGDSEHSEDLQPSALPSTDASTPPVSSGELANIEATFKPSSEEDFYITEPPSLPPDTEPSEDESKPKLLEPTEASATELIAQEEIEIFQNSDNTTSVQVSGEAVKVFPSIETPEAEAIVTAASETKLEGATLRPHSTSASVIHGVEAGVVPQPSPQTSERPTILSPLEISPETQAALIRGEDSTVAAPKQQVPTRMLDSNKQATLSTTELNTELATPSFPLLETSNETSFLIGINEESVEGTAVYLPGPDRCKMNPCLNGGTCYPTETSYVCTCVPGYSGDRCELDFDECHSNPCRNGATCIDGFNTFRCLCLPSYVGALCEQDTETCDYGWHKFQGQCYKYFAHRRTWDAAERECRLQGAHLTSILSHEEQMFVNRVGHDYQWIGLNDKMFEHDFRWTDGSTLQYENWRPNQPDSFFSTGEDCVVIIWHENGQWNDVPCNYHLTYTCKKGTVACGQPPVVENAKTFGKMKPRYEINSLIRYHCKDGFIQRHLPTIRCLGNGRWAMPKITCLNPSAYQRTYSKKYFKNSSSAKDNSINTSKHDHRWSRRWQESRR

[2] = biological target: Native versican isolated from bovine liver (bovine) (UniProt P81282); experiment: as above
Native versican isolated from bovine liver (bovine), sequence (P81282 21-3381): as above

Row | Substance | Kd [1] [nM] | Kd [2] [nM]
1 | Rat tail type I telo-collagen, P02454 152-1207; P02466 86-1125 (complex; GAG side chains removed with chondroitinase ABC) | 2.2 | –
2 | Rat tail type I telo-collagen, P02454 152-1207; P02466 86-1125 (complex; chondroitin sulfate GAG side chains) | – | 1.3
